# B1: unnamed (protein)
# chain: MNFPRASRLMQAAVLGGLMAVSAAATAQTNPYARGPNPTAASLEASAGPFTVRSFTVSRPSGYGAGTVYYPTNAGGTVGAIAIVPGYTARQSSIKWWGPRLASHGFVVITIDTNSTLDQPSSRSSQQMAALRQVASLNGTSSSPIYGKVDTARMGVMGWSMGGGGSLISAANNPSLKAAAPQAPWDSSTNFSSVTVPTLIFACENDSIAPVNSSALPIYDSMSRNAKQFLEINGGSHSCANSGNSNQALIGKKGVAWMKRFMDNDTRYSTFACENPNSTRVSDFRTANCS
# What was measured:
# Settings in all cases: pH 8; 30 °C; part of the chain shown
# p-NP-C12 = substrate: p-NP-C12
# p-NP-C2 = substrate: p-NP-C2
# p-NP-C4 = substrate: p-NP-C4
# p-NP-C6 = substrate: p-NP-C6
# p-NP-C8 = substrate: p-NP-C8
protein,measurement,setting,value
B1,Km,p-NP-C12,2280 µM
same,kcat,p-NP-C12,1530 s⁻¹
same,kcat/Km,p-NP-C12,671000 M⁻¹ s⁻¹
same,Km,p-NP-C2,431 µM
same,kcat,p-NP-C2,1590 s⁻¹
same,kcat/Km,p-NP-C2,3.69e+06 M⁻¹ s⁻¹
same,Km,p-NP-C4,315 µM
same,kcat,p-NP-C4,1350 s⁻¹
same,kcat/Km,p-NP-C4,4.3e+06 M⁻¹ s⁻¹
same,Km,p-NP-C6,52.8 µM
same,kcat,p-NP-C6,1350 s⁻¹
same,kcat/Km,p-NP-C6,2.55e+07 M⁻¹ s⁻¹
same,Km,p-NP-C8,48.1 µM
same,kcat,p-NP-C8,519 s⁻¹
same,kcat/Km,p-NP-C8,1.08e+07 M⁻¹ s⁻¹

# From the PETadex activity labels (doi:10.1016/j.bbrc.2018.11.148)
